{"source": "patent US20130231265A1", "key": {"[1]": {"test_system": "Syk biosensor peptide GGDEEDYEEPDEPGGKbiotinGG-betaNpa-RKKRRQRRR (SAStide biosensor)"}, "[2]": {"target": "Syk biosensor peptide …biotinGG-betaNpa-… (SAStide biosensor)", "assay": "cell-based or functional assay"}, "[3]": {"test_system": "T1, Abl artificial substrate peptide, GGDEDDNDEVAYQAPFEDGGKbiotinGG", "T1 sequence": "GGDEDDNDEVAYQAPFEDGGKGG"}, "[4]": {"test_system": "T2, Src family artificial substrate peptide A, GGEEDEDIYEELDEPGGKbiotinGG", "T2 sequence": "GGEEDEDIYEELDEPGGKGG"}}, "data": [{"substance": "EGFP-conjugated Syk (Syk-EGFP) isolated from DT40 chicken B cells stably expressing Syk-EGFP", "values": [{"measurement": "in vitro kinase assay, ELISA-based antiphosphotyrosine (4G10) chemifluorescence signal over time", "setting": "[1]", "value": "A substantial increase in signal over time was observed, demonstrating that SAStide was phosphorylated by Syk in vitro"}, {"measurement": "in vitro kinase assay, time-resolved Tb3+ luminescence, percent phosphorylation against time", "setting": "[1]", "value": "These data show that enzymatic phosphorylation of SAStide can be detected using time-resolved Tb^3+ luminescence"}]}, {"substance": "EGFP-conjugated Syk (Syk-EGFP) isolated from DT40 chicken B cells stably expressing Syk-EGFP (enzyme)", "values": [{"measurement": "phosphorylation of the biosensor peptide in Syk(-/-) DT40 cells reconstituted with Syk-EGFP, BCR stimulation by IgM, over unstimulated cells", "setting": "[2]", "value": 2, "unit": "fold"}, {"measurement": "phosphorylation of the biosensor peptide in Syk(-/-) DT40 cells reconstituted with Syk-EGFP, H2O2 with or without BCR stimulation, over control", "setting": "[2]", "value": 12, "unit": "fold"}]}, {"substance": "Recombinant Abl kinase (Millipore)", "values": [{"measurement": "in vitro kinase assay, ELISA-based antiphosphotyrosine (4G10) chemifluorescence signal", "setting": "[1]", "value": "none of which produced any significant signal for phosphopeptide"}, {"measurement": "in vitro kinase assay, terbium-sensitized luminescence, confirmed by ELISA-based Amplex Red chemifluorescent assay", "setting": "[3]", "value": "ABStide was specific for Abl against the Src-family kinase, Hck"}]}, {"substance": "Recombinant Hck", "values": [{"measurement": "in vitro kinase assay, time-resolved Tb3+ luminescence, percent phosphorylation against time", "setting": "[4]", "value": "These data show that enzymatic phosphorylation of SFAStideA can be detected using time-resolved Tb^3+ luminescence"}, {"measurement": "in vitro kinase assay, terbium-sensitized luminescence, confirmed by ELISA-based Amplex Red chemifluorescent assay", "setting": "[3]", "value": "ABStide was specific for Abl against the Src-family kinase, Hck"}]}, {"substance": "Recombinant Lyn kinase (Millipore)", "values": [{"measurement": "in vitro kinase assay, ELISA-based antiphosphotyrosine (4G10) chemifluorescence signal", "setting": "[1]", "value": "none of which produced any significant signal for phosphopeptide"}]}, {"substance": "Recombinant Src kinase (Millipore)", "values": [{"measurement": "in vitro kinase assay, ELISA-based antiphosphotyrosine (4G10) chemifluorescence signal", "setting": "[1]", "value": "none of which produced any significant signal for phosphopeptide"}]}]}
